Source: article doi:10.1101/2020.04.01.839274 (bioRxiv, 2020)
Values belong to the binder of their own block, whether it stands above or below them.

How the values were obtained:
[1] = target: Myc-tagged mouse EXOSC5 p.Thr114Ile (mouse, UniProt Q9CRA8 1-235, T114I); assay: co-IP
[2] = target: Myc-tagged mouse EXOSC5 p.Leu206His (mouse, UniProt Q9CRA8 1-235, L206H); assay: co-IP
Myc-tagged mouse EXOSC5 p.Leu206His, sequence (Q9CRA8 whole entry L206H): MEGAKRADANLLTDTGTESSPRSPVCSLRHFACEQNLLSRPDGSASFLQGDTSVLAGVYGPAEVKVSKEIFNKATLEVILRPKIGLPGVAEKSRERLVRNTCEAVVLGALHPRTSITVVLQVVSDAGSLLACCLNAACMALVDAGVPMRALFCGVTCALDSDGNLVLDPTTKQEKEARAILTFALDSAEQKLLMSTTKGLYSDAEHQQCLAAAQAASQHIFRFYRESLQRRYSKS

Myc-tagged mouse EXOSC5 p.Thr114Ile, sequence (Q9CRA8 whole entry T114I): as the sequence (Q9CRA8 whole entry L206H) above, with T114I, H206L counted along it

% EXOSC subunit bound relative to wild-type EXOSC5 [1]: 24%
% EXOSC subunit bound relative to wild-type EXOSC5 [2]: 16%
B1: endogenous EXOSC9 (natural protein, mouse (endogenous in Neuro-2a), UniProt Q9JHI7 1-438, looked up)
chain: MKETPLSNCERRFLLRAIEEKKRLDGRQTYDYRNIRISFGTDYGCCIVELGKTRVLGQVSCELVSPKLNRATEGILFFNLELSQMAAPAFEPGRQSDLLVKLNRLLERCLRNSKCIDTESLCVVAGEKVWQIRVDLHLLNHDGNIIDAASIAAIVALCHFRRPDVSVQGEEVTLYTPEERDPVPLSIHHMPICVSFAFFQQGTYLLVDPNEREERVMDGLLVIAMNKHREICTIQSSGGIMLLKDQVFRCSKIAGVKVAEITELIQKALENDQRVRKEGGKFGFAESIANQRITAFKMETAPIDTSNIEERAEEIIAEAEPPPEVVSQPVLWTPGTAQIGDGIENSWGDLEDSEKEEEEEEGGIDEAVILDDTKMDTGEVSDIGSQGAPIVLSDSEEEEMIILEPEKNPKKIRAQTSANQKAPSKGQGKRKKKKRTAN

% EXOSC subunit bound relative to wild-type EXOSC5 [1]: 40%
% EXOSC subunit bound relative to wild-type EXOSC5 [2]: 21%
B2: endogenous EXOSC10 (natural protein, mouse (endogenous in Neuro-2a), UniProt P56960 1-887, looked up)
chain: MAPPSPREHQSAPATSATKPDAEMVLPGFPDADSFVKFALGSVVAVTKASGGLPQFGDEYDFYRSFPAFQAFCETQGDRLLQCMSRVMQYHGCRSNIKDRSKVTELEDKFDLLVDTNDVILERVGMLLDEASGVNKHQQPVLPAGLQVPKTIVSSWNRKAGEYGKKAKSETFRLLHAKNIVRPQLRFREKIDNSNTPFLPKIFVKPNARKPLPLALSKERRERPQDRPEDLDVPPALADFIHQQRTQQVEQDMFAHPYQYELDHFTPPQSVLQRPKPQLYRAVGETPCHLVSSLDELVELNEKLLGCQEFAVDLEHHSYRSFLGLTCLMQISTRTEDFIVDTLELRSDMYILNESLTDPAIVKVFHGADSDIEWLQKDFGLYVVNMFDTHQAARLLNLARHSLDHLLRLYCGVESNKQYQLADWRIRPLPEEMLSYARDDTHYLLYIYDRMRLELWERGNHQPVQLQVVWQRSRDICLKKFVKPIFTDESYLELYRKQKKHLNSQQLTAFQLLFAWRDKTARREDESYGYVLPNHMMLKIAEELPKEPQGIIACCNPVPPLVRQQINEMHLLIQQAREMPLLKSENAAGVRKSGPLPSAERLENDLFGPHDCSHAPPDNYQNTSTDGTLPLQKQPSLFTEGKEETSVDAGCLLATAVITLFSEPNTEEGGKTPLTVAQKKAQNIMQSFENPFRMFLPSLEHKAHISQAAKFDPSSKIYEISNRWKLASQVQVQKEPKEATKKKVAEQTAAREEAKEEAAAGVLEQAIPVRQQAALENATKKRERATSDLRTIEQKQEKKRLKSSKKAKDPDPPGKDFSPYDYSQSDFRAFAGDSKSKPSSQFDPNKLAPSGKKGVGAKKCKQSVGNKSMSFAVGKSDRGFRHNWPKR

% EXOSC subunit bound relative to wild-type EXOSC5 [1]: 28%
% EXOSC subunit bound relative to wild-type EXOSC5 [2]: 9%
B3: endogenous EXOSC3 (natural protein, mouse (endogenous in Neuro-2a), UniProt Q7TQK4 1-274, looked up)
chain: MAEVLSAGPESVAGCRARAVHKVLNQVVLPGEELVLPDHEDVDGLGGAGEQPLRLNAGARPRLRVVCGPGLRRCGDRLLVTKCGRLRHKEPSGGGGGVYWVDSQQKRYVPVKGDHVIGIVIAKSGDIFKVDVGGSEPASLSYLAFEGATKRNRPNVQVGDLIYGQCVVANKDMEPEMVCIDSCGRANGMGVIGQDGLLFKVTLGLIRKLLAPDCEIVQELGKLYPLEIVFGMNGRIWVKAKTIQQTLILANVLEACEHMTTEQRKQIFARLAES
